The target in this experiment is c-Met on MKN45 gastric cancer cells / Caki-1 kidney cancer cells (human) (UniProt P08581). Put plainly: cell-based or functional assay.
UniProt P08581, sequence (P08581 25-1390): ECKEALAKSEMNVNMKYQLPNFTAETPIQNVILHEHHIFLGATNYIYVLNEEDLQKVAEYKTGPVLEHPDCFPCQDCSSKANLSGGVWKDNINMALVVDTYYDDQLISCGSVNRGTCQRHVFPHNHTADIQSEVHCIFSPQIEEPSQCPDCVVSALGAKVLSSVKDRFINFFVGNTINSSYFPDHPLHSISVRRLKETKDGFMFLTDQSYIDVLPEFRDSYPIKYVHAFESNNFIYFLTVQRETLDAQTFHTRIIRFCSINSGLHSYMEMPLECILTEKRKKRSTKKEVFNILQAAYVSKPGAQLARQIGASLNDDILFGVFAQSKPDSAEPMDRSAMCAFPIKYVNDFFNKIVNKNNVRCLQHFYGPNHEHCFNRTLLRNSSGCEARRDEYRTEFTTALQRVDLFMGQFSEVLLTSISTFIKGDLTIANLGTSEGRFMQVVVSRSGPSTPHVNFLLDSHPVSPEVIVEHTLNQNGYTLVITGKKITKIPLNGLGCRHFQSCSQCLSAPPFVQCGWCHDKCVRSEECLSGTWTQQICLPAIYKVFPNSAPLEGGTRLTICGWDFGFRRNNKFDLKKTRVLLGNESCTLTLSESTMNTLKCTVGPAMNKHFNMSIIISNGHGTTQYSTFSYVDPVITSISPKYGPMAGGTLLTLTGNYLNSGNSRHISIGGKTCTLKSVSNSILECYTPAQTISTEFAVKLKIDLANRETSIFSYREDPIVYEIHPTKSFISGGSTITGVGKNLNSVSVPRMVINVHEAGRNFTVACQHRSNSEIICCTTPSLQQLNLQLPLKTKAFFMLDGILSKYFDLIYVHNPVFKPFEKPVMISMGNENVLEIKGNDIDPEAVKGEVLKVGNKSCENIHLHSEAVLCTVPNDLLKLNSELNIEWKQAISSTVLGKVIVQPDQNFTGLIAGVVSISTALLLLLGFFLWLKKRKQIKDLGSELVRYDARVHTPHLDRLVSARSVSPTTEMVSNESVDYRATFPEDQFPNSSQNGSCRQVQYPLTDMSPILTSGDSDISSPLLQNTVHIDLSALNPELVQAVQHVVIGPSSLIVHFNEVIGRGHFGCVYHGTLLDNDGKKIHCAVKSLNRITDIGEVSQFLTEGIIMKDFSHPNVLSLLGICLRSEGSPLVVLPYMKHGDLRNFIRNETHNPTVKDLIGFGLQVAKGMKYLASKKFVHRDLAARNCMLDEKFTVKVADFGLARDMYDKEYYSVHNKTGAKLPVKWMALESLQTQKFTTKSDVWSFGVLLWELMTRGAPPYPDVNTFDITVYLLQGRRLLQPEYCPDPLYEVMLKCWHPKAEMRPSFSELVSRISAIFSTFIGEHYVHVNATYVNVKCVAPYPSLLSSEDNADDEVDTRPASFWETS

In the case of 5D5 (antibody), the Akt phosphorylation (Ser473), phospho-AKT1 sandwich ELISA, Caki-1 cells (reference set to 100%) came out at 100%.

Values taken from patent publication KR20150000795A.
